No end group written: not given here. *: point of attachment. Dodecyl = CCCCCCCCCCCC*
T1: Rat recombinant TF (Rattus norvegicus, UniProt P42533)
T1 construct: purchased Cloud Clone Corp
T1 sequence (P42533 29-295): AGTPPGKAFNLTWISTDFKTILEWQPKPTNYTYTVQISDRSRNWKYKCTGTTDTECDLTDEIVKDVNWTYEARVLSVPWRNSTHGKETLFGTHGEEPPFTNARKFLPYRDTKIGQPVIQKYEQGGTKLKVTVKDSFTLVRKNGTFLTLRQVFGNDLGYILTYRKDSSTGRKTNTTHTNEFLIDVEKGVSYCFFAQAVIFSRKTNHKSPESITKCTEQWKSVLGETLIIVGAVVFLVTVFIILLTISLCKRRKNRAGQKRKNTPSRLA


Assays:
[1] = biological target: T1, Rat recombinant TF; test: Plate-based in vitro binding assay of TF-targeting peptides to recombinant TF; settings: for absorbance (binding to recombinant TF): 450 nm, coated peptides incubated with 75 ng recombinant TF; for dose response of absorbance with recombinant TF: peptide-coated plates, increasing concentrations of recombinant TF
Description: A plate-based binding assay for the TF-targeting peptides was performed as follows. Peptides were dissolved in water at a concentration of 60 μM and coated onto BD Falcon OptiLux 96-well plates (BD Biosciences, Franklin Lakes, N.J.) by incubating them at 37° C. for 2 hours, then at 4° C. overnight. Next, wells were blocked using Superblock phosphate buffered saline (PBS) blocking buffer (200 μL per well, Thermo Scientific, Waltham, Mass.) for 2 hours at room temperature, then washed two times with water. Rat recombinant TF (Cloud Clone Corp, Houston, Tex.) was added in amounts of 12.5-75.0 ng, dissolved in PBS for a total volume of 50 μL/well and incubated at room temperature for 4 hours. Plates were rinsed with water twice, then blocked with Superblock PBS blocking buffer for 30 minutes at room temperature. Colorimetric immunodetection was then performed by incubating wells with anti-TF antibody (Cat. #: ab104513, rabbit polyclonal, Abcam, Cambridge, Mass.) dissolved in Superblock PBS blocking buffer (1:5000) at 4° C. overnight. Wells were washed in water 4 times, and then incubated with a secondary goat-anti-rabbit antibody (Thermo scientific, Rockford, Ill.) conjugated to horseradish peroxidase and dissolved 1:5000 in Superblock PBS blocking buffer for 2 hours at room temperature. Wells were then rinsed 4 times in water, developed using TMB developing solution (TMB Substrate, Thermo Scientific, Waltham, Mass.) for 15 minutes, then stopped with 0.18 M H2SO4 (Sigma Aldrich, St. Louis, Mo.). Plates were immediately read using an Epoch plate reader (BioTek, Winooski, Vt.) at 450 nm. Wells were coated in triplicate, and the assay was performed three times. Treatment groups were each peptide as stated above. Negative controls were wells coated with blocking buffer rather than peptide, and positive controls were wells coated with rat recombinant TF (Cloud Clone Corp) at 12.5 and 25 ng/well.

[2] = test system: Sprague Dawley rats; test: Liver punch hemorrhage model, blood loss; assay type: in vivo; settings: % total blood volume, rat liver punch model, 30 minutes, 2.5 mg PA by tail vein
Description: (§1) At the end of 30 minutes, animals were euthanized.
Blood loss was presented as % total blood volume. […] Data were log transformed for analysis.

[3] = test system: injured liver; test: Fluorescent microscopy of nanofiber binding in liver and other organs after liver punch injury; assay type: in vivo; settings: rat liver punch model, tail vein injection, fluorescently labeled nanofiber
Description: as §1
In situ perfusion with 400 mL of a PBS solution was performed, and organs including the kidneys, spleen, lung, uninjured liver, and injured lobe of the liver were collected for tissue processing. Samples were fixed in 2% paraformaldehyde for 2 hours, then 30% sucrose overnight. Samples were then frozen in Tissue-Tek OTC compound (Sakura Finetek, Torrance, Calif.) over liquid nitrogen and stored at −20° C. A LEICA CM 1950 cryostat (LEICA Biosystems, Buffalo Grove, Ill.) was used to cut samples into 10-μm sections, which were stained with 4′,6-diamidino-2-phenylindole (DAPI, Invitrogen, Grand Island, N.Y.), and fixed with ProLong® Gold antifade reagent (Life Technologies, Eugene, Oreg.). […]
Digital images were acquired using a Zeiss LSM-510 microscope (Hallbergmoos, Germany) with a 20× objective. The HE CY3 filter (Zeiss filter #43) using excitation and emission wavelength 550-575 nm and 605-670 nm, respectively, was used to assess PA fluorescence. […] The green fluorescent protein filter (Zeiss filter #38) using excitation and emission wavelengths of 470-495 nm and 525-550 nm, respectively, was used to assess tissue auto-fluorescence.

Molecule	absorbance (binding to recombinant TF) [1]	total blood loss [2] [%]	fluorescence in injured liver [3]	dose response of absorbance with recombinant TF [1]
A2V2K2—C12 (KKAAVVK) [non-specific peptide, non-specific peptide, consisting of the filler peptide, selected as a non-targeted control]	0.2±0.03	–	–	–
KKAAVV(K)-C12 (KKAAVVK(Dodecyl)-NH2; not fully specified; printed as KKAAVV(K)-C12) [non-specific PA nanofiber]	–	21±2	No fluorescence was observed	–
RLMTQDCLQQRSK	0.29±0.02	–	–	increased absorbance with increasing concentrations of recombinant TF
recombinant TF: rat recombinant tissue factor (Cloud Clone Corp) coated on wells as positive control (protein) AGTPPGKAFNLTWISTDFKTILEWQPKPTNYTYTVQISDRSRNWKYKCTGTTDTECDLTDEIVKDVNWTYEARVLSVPWRNSTHGKETLFGTHGEEPPFTNARKFLPYRDTKIGQPVIQKYEQGGTKLKVTVKDSFTLVRKNGTFLTLRQVFGNDLGYILTYRKDSSTGRKTNTTHTNEFLIDVEKGVSYCFFAQAVIFSRKTNHKSPESITKCTEQWKSVLGE	0.32±0.01	–	–	–

More lines, main results first:

absorbance (binding to recombinant TF) [1]	Molecule	total blood loss [2] [%]	fluorescence in injured liver [3]	dose response of absorbance with recombinant TF [1]
0.19±0.3	EGRNCETHKDDQL	–	–	–
0.28±0.03	RTLAFVRFK	–	–	increased absorbance with increasing concentrations of recombinant TF

Reference: US10738294B2, “Tissue factor (TF)—targeted nanotherapy” (Northwestern University, priority 2016, dated 2020)
